The data set can be described thus: label from the status in PepcDB records.

The record followed here is a protein production outcome set (Wang et al. 2014).

Turning to “MKVIKTAPLIPSEIKVLEKEGNRVKISLAPFEFGYAVTLAHPIRRLLLLSSVGYAPVGLKIEGVHHEFDSLRGVTEDVSLFIMNLKNIRFIAKALVGQDSSLENQSVVVDYSFKGPMELRARDLNSEQIEIVNPEMPLATINEDAQLNFSLIIYKGMGYVPSENTRELMPEGYMPLDGSFTPIKKVVYEIENVLVEGDPNYEKIIFDIETDGQIDPYKAFLSAVKVMSKQLGVFGERPIANTEYSGDYAQRDDAKDLSAKIESMNLSARCFNCLDKIGIKYVGELVLMSEEELKGVKNMGKKSYDEIAEKLNDLGYPVGTELSPEQRESLKKRLEKLEDKGGND”, the protein production entry is given as “failed”.

Take “MKVKKLVGTLLATALFFSALTATYYYQKYQALLANNVENTAKEALHQLAYTGREYNNIQDQIETISDLLGHSQSLYDYLREPSKANLTILENMWSSVARNQKLYKQIRFLDTSGTEKVRIKYDFKTSIAGPSLILRDKSAREYFKYAQSLDNEQISAWGIELERDKGELVYPLSPSLRILMPISVNDVRQGYLVLNVDIEYLSSLLNYSPVRDFHIELVKHKGFYIASPDESRLYGDIIPERSQFNFSNMYPDIWPRVVSEQAGYSYSGEHLIAFSSIKFVSNEPLHLIIDLSNEQLSKRATRDINDLIQESLFVLSLVLVFTLPITALALHYRRHSVESKLARAALDGMTAVMISDASLRIIMVNQEFENMMGYSTEQVKGSNAHSLILLPEDLEETLNIWNKLGRENVWEGEVRCRTQLNHVFTAIMRIQANLTKSGKISYYITSLVDISERKALEEQLRNLSEKDGLTGLWNRRKFEEQLTHYANIVERYPDTPTTCLALFDIDHFKRINDERGHDEGDKVICSVAETLLREVRTTDFVSRVGGEEFAVIMPHTTVKEAEVVLNRLRVAVQLRSNMTVTVSAGYSDLTADRTRSYKCADIALYESKSAGRNCVSLCHSIDDIA”: the protein production result was “failed”.

For “MKVKKYDQFNESCYQAQLDNGLTVTLLPKAGYHKTYATFTTNYGSIDNTFVPAGSTEMQRFPDGIAHFLEHKMFEKADHDAFQIFGQYGASANAFTSFTKTSYLFSATRHLQDNLMTLLDFVQDPYFTPATVDKEKGIIGQEIEMYDDDPSWRLYFGMIGNLYPNHPLQYDIAGTTESIAKITADDLYAAYRTFYHPENMTLFVVGNFDPDEVLGWITTNQATKKFAAFQPIERKIPETATDGHDIIPYRTIDMPVNRAKSIVGVKGLLPIEAGAAALKYRAAVNVLLELLFGDTSADYLRLYDQGIIDDTFGYDFELQSGFNFVTFSGETDDPAQFDAAIIDVLENWRTAVVGQEAALALVKKEMIGRVVFMANSLEAIANRYDQRLFGTATIFDEPGIIDQLTLADLQTVAEQLLTSQAISEYQIRPQAKS”, the protein production result is recorded as “failed”.

Consider “MKVKSPLEVYNYLPRTNCGECGFDTCMSFAAHILDRSVTPLDCKPLVRDAEKDPKVKKKLEELLELTAPEIAEVVIGVGENAVKIGGEEVLHRHELTFFNPTGFFYDVWDTMDDKALEERCDRVVSYKKFYVGNFLTLDGFAVRCTSGDPKRYREVVKKVASYGKPLILVALDSECMKAALEEVADQRPLMYAATEGNWKEFLKLALEYKVPVTLRAKDLDLLKSMAVTFKQAGVKDIVLDPVTEPLGEGLKGTFERVIQLRRTAIAGQDKDVAYPIMITPIAAWLIEGDDVTKSYWEAVIASIFIVKYGDVMIFRSIDQHVVMPTITLRFNIYTDPRTPVQVEPGLRAINDPGPDDPVFITTNFALTYYTVESDLTSGGIKGWLLVLNTEGLGVEVSVAGGQFTASKVKELIEETKIEEKVNHRYLVIPGLAARLQGAIEDETGWKVLVGPMDSGRIKGWLEKNWPPKE”, for which the protein production entry is given as “not failed”.

As to “MKVLGISCSPRPGQTTDRLVQEVLNNIEAPTEFVSLSGRRIGPCLGCLGCVADNVCKVRDDMGELRPLIVEADALVIGAPNYFGMLNGLAHCFLERLYQFRHQEGGALHGKLGVAVGVGSAMPDSAVRDIEKFFSFSRIEPVGNVTAIGPASCFNCGHGEECREGAIHRVFGPGTKITADLTPNLSKQPDSLTAARTLGEKLTQRLKQG”, the protein production result is given as “failed”.

Take “MKVLGYGREKKVILEAPNYDNDCVLANILAAHYLSSFDPVRARSYALAAESRLGKATLYEKAVFEAVSYLLSENMDDDVALELHSKLLKKFPKDLLSWKRVETLCSYMGRHDLSLPLFRKILPQNEGQVYVNGMLAFCLIELGHLREAEEAARKGCEINENDSWAHHALCHVLQTECRFKEAVKFMEEHSDSWDSCSSLRFSHNWWHVAVCYLEGGSHISKVEEVYDHQMWKELEKDDAVARDVYTDALGLLLRLDTRGKLDDGFQDRLEKLADSLTDKAMWYQDWLFDITTIWALSKVEKTSLAHELLEGLKSRTSAMNPKKQKLMQKAILLAEAVYEYGKGNYEIALELLGLDFDAANYKVIGGSGLQMDVFNEIWYKLLLLNGKSSTGTLLKNTIISIYFGYIFVFSATNSAFTTPEPAAIEVLEKVTKQRDGAPFLWRLLEESYSMEGKEKAGISAGKKAKALESSYFKSA”: the protein production entry is reported as “failed”.

With “MKVLILGGGYTGQRLAQLLAAQSIPVLATTRSGQWPLDEPCVTFDAGSTPLLLPDPAALAGVTHVLSTIPPLGDGGDPVLSTLLPTLQYLSLQWCGYLSTTGVYGDTQGAWVDEDSPLQSTNRRSQQRIAIEAQWLASGLPAHIFRLPGIYGPGRSSFDRLRRGDNQRLLKPGHVFCRIHVDDIAAALWASLQQPNPGRIYNVSDDFPCEPALLIEAAAQLMGVELPPPLPVDAVELSPMAASFWSECRRVRNDRLKQELGVQLRYPSYREGLAAIWAAELEHHHHHH”, the protein production result was “failed”.

As to “MKVLRLGIVFQLLFVLLLTVGNFARIFIIDHYSVYPIAFFELFLGIGSLSCGVYGLIKTEKPILSLWLICFGLLICVFFIVVYLLPEGDIPPEITWFYSE”, the protein production entry was “failed”.

Turning to “MKVLSYLKNFYLFLAIGAIMQASENMGSQHQKTDERVIYLAGGCFWGLEAYMERIYGVIDASSGYANGKTSSTNYEKLHESDHAESVKVIYDPKKISLDKLLRYYFKVVDPVSVNKQGNDVGRQYRTGIYYVNSADKEVIDHALKALQKEVKGKIAIEVEPLKNYVRAEEYHQDYLKKHPSGYCHIDLKKADEVIVDDDKYTKPSDEVLKKKLTKLQYEVTQNKHTEKPFENEYYNKEEEGIYVDITTGEPLFSSADKYDSGCGWPSFSKPINKDVVKYEDDESLNRKRIEVLSRIGKAHLGHVFNDGPKELGGLRYCINSAALRFIPLKDMEKEGYGEFIPYIKKGELKKYINDKKSH”, the protein production result is listed as “failed”.

Turning to “MKVLVIGNGGREHALAWKAAQSPLVETVFVAPGNAGTALEPALQNVAIGVTDIPALLDFAQNEKIDLTIVGPEAPLVKGVVDTFRAAGLKIFGPTAGAAQLEGSKAFTKDFLARHKIPTAEYQNFTEVEPALAYLREKGAPIVIKADGLAAGKGVIVAMTLEEAEAAVHDMLAGNAFGDAGHRIVIEEFLDGEEASFIVMVDGEHVLPMATSQDHKRVGDKDTGPNTGGMGAYSPAPVVTDDVHQRTMERIIWPTVKGMAAEGNTYTGFLYAGLMIDKQGNPKVIEFNCRFGDPETQPIMLRMKSDLVELCLAACESKLDEKTSEWDERASLGVVMAAGGYPGDYRTGDVIHGLPLEEVAGGKVFHAGTKLADDEQVVTNGGRVLCVTALGHTVAEAQKRAYALMTDIHWDDCFCRKDIGWRAIEREQN”, the protein production entry is reported as “failed”.

Consider “MKVNVSCSSVQTTIDILEENQGEDESILTLGQLRDRIATDNDVDVETMKLLHRGKFLQGADDVSLSTLNFKENDKIIVMGGKNALVDDAGFKMLMQYEKHNLSNLQKAYDLNLRDVADLERGFLEKPKQVEMGKKLEKKVKYFNEEAERHLETLDGMNIITETTPENQAKRNREKRKTLVNGIQTLLNQNDALLRRLQEYQSVLNGDIPE”, for which the protein production result is given as “not failed”.

On to “MKVSDILTVAIRLEEEGERFYRELSEHFNGEIKKTFLELADQERIHAEIFRKMSDQENWDEVDSYLAGYAFYEVFPDTSEILRRKDLTLKEVLDIAISVEKDSIILYYELKDGLVNSDAQKTVKKIIDQEKEHLRKLLEMKREST”, for which the protein production entry is “not failed”.

For the sequence “MKVSVEIITGTFIDTDVSEDATVKQMKEKIAVEVKLPVTRLILVIGDEETRRLVMEDEDDMMLRDLGVGEDSHIYLFFKHPDLVSKEERSKGEDDDDPMEEVSSEAESGRGNEEEVEKAKIDGEEEDQAMKDEEEDRDVKVEEDEEEKEKEKDGEAKYVKEEAREVEEADNKQEN”, the protein production entry is recorded as “failed”.

Turning to “MKVTDVRLRKIQTDGRMKALVSITLDEAFVIHDLRVIEGNSGLFVAMPSKRTPDGEFRDIAHPINSDMRQEIQDAVMKVYDETD”, the protein production entry is given as “not failed”.
